This is an account of results in publication PMC4276739 (2015).

As a reminder, the Kd is the free concentration of one partner at which half of the binding sites on the other are occupied at equilibrium, for simple one-to-one binding.

The target of assay [1] is ActRII ECD (Homo sapiens) (UniProt P27037). Particulars: cited from earlier work.
In assay [2] the target is T1, ALK3 (BMPRIa) ECD (Homo sapiens, UniProt P36894).
T1 chain: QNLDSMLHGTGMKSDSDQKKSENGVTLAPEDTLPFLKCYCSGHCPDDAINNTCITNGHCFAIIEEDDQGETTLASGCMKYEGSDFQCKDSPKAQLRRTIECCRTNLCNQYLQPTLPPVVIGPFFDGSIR
Kind of assay: SPR. For orientation: Surface plasmon resonance follows binding to a sensor surface in real time, without labels.

Chain of ActRII ECD (Homo sapiens) (P27037 20-135): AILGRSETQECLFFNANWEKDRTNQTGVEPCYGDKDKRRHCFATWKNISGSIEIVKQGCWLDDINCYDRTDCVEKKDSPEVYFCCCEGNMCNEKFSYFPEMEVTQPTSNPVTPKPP

For Activin A (from UniProt P08476), the Kd in assay [1] was 0.2 nM.

B1: BMP2 (protein)
chain: QAKHKQRKRLKSSCKRHPLYVDFSDVGWNDWIVAPPGYHAFYCHGECPFPLADHLNSTNHAIVQTLVNSVNSKIPKACCVPTELSAISMLYLDENEKVVLKNYQDMVVEGCGCR
As to B1, binding in assay [2] was characterised by a dissociation constant (Kd) of 5 nM.
